# T1: hRev1 330-833 (core polymerase domain) (human, UniProt Q9UBZ9 330-833)
# T1 sequence: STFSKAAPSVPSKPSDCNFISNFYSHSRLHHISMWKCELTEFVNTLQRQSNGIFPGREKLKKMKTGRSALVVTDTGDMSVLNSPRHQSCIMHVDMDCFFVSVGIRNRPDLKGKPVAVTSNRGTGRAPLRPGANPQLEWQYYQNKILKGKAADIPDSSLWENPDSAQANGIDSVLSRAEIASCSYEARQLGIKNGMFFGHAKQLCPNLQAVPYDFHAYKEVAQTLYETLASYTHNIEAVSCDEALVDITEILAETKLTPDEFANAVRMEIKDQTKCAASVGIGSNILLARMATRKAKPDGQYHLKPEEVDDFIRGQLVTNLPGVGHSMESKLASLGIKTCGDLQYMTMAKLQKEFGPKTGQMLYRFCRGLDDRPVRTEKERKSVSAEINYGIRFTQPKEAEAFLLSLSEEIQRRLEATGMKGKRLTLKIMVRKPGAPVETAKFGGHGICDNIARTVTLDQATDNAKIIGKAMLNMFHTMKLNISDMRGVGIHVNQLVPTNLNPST
# B1: 11/28-mer primer-template G4 DNA (mixed)
# DNA 1: TGGGTGGGTAGGGTGGGTAGGGGAGGAT
# DNA 2: ATCCTCCCCTA
# B2: FAM/Dab 18/42-mer G4 DNA (mixed)
# DNA 1: TGAGGGTGGGTAGGGTGGGTGCGTCTGCGGCTGGCTCGAGGC
# DNA 2: GCCTCGAGCCAGCCGCAG
# B3: 23/42-mer Myc2345 G14/23T primer-template (mixed)
# DNA 1: B2 DNA 1
# DNA 2: GCCTCGAGCCAGCCGCAGACGCA
# B4: 11/28-mer primer-template non-G4 DNA (mixed)
# DNA 1: TATGTGACTATGCTGGGTAGGGGAGGAT
# DNA 2: ATCCTCCCCTA
# Columns and labels:
# [1] = target: T1, hRev1 330-833 (core polymerase domain); assay: fluorescence polarization
# [2] = target: T1, hRev1 330-833 (core polymerase domain); assay: stopped-flow fluorescence quenching
# [3] = target: T1, hRev1 330-833 (core polymerase domain); assay: DMS footprinting
# [4] = target: T1, hRev1 330-833 (core polymerase domain); assay: stopped-flow fluorescence quenching; remark: listed apart in the source
Binder,Kd [1] [nM],also measured
B1,8.4 ± 2.5,
B2,,binding result [2]: binds
B3,,binding result [3]: binds
TGAGGGTGGGTAGGGTGGGTGCGTCTGCGGCTGGCTCGAGGC (structured_DNA) [FAM/Dab 42-mer ss-G4 DNA (Myc2345 G14/23T)],,binding result [4]: binds
B4,129 ± 20,
TGGGTGGGTAGGGTGGGTAGGGGAGGAT (structured_DNA) [ss-G4 DNA 28-mer],15.7 ± 8.7,
TATGTGACTATGCTGGGTAGGGGAGGAT (ssDNA) [ss-non-G4 DNA 28-mer],65.7 ± 8.8,
